The values that follow come from patent publication US20230002494A1 (SANYOU BIOPHARMACEUTICALS, published 2023).

In assay [1] the target is T1, human PD-L1 (full-length, on cells) (human, UniProt Q9NZQ7 19-290).
T1 construct: whole, on cells; Expressed on CHO-s cells; also called human PD-L1-CHO; PD-L1-CHO
Nature of the assay: FACS competition, human PD-L1-CHO cells, competitor biotin-labeled PD-1-Fc 1 µg/mL.

Assay [2] addresses T1, human PD-L1 (full-length, on cells). Nature of the assay: FACS on human PD-L1-CHO cells, PE anti-human IgG Fc. From the text:
1) collecting the cultured human PD-L1-CHO cells, centrifuging the collected cells at 300 g to remove the supernatant, resuspending the cells in a formulated FACS buffer and counting the cells, and adjusting the density of the cell suspension to 2×10⁶ cells/mL;

For assay [3] the target is unchanged. Nature of the assay: FACS, human PD-L1-CHO cells.
Assay [4] deals with T2, B7-H2 protein, Sino Biological 11559-H08H (UniProt O75144 19-258).
T2 construct: Bought protein
T2 sequence (looked up): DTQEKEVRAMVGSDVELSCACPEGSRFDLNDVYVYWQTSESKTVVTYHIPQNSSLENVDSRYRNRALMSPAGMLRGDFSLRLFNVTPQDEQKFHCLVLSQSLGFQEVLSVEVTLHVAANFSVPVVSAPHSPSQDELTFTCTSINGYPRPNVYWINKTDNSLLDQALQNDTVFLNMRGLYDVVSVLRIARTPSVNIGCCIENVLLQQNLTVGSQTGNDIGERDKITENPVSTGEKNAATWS
Nature of the assay: ELISA, plate coated with 2 µg/mL protein, anti-human IgG Fc-HRP, OD450. Set-up: concentration or dose not given beside the values. As for the experimental part: (§1) The specific method is as follows:
(§2) one day prior to the experiment, 30 μL of protein diluents such as B7-H1 (i.e., PDL1), B7-H2, B7-H3, B7-H4 and B7-DC (the above-mentioned proteins are all purchased from Sino Biological Co., Ltd., with Cat. Nos. 10084-HNAH, 11559-H08H, 11188-H08H, 10738-H08H and 10292-H08H-B, respectively) are added to an ELISA plate at a final concentration of 2 μg/mL, and incubated at 4° C. overnight; the next day, the ELISA plate is rinsed 3 times with PBST, then blocked with 150 μL of 5% PBSM, and incubated at room temperature for 2 hours; the ELISA plate is rinsed 3 times with PBST again, and then 30 μL of candidate antibody and control antibody diluents are added thereto, and the plate is incubated at room temperature for 1 hour; the plate is rinsed 3 times with PBST, and an anti-human IgG Fc-HRP second antibody diluted at 1:7000 is added thereto (30 μL/well), and the plate is incubated at room temperature for 30 minutes; the plate is rinsed 6 times with PBST, then TMB is added thereto for color development, and finally, 2M HCl is added to stop the reaction.

Assay [5] has as its target T3, B7-H4 protein, Sino Biological 10738-H08H (UniProt Q7Z7D3 25-258).
T3 construct: Bought protein
T3 sequence (looked up): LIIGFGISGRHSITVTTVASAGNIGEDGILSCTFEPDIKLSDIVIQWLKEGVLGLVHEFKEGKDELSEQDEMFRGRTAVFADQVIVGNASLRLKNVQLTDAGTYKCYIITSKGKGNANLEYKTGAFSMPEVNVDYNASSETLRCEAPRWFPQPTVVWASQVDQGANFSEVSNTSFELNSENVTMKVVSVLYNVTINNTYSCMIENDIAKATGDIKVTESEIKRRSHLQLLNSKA
Described as above. Set-up: concentration or dose not given beside the values. As for the experimental part: as §1, §2

Assay [6] addresses T4, B7-DC protein, Sino Biological 10292-H08H-B (UniProt Q9BQ51 20-219).
T4 construct: Bought protein
T4 sequence (looked up): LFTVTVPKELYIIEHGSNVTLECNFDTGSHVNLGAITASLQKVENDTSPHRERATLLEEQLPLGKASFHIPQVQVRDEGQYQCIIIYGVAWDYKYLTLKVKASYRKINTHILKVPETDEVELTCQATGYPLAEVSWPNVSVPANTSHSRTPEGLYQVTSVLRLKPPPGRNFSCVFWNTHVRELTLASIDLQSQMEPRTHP
The description is as above. Set-up: concentration or dose not given beside the values. The method, then:
as §1, §2

The target in assay [7] is T5, B7-H3 protein, Sino Biological 11188-H08H (UniProt Q5ZPR3 29-461).
T5 construct: Bought protein
T5 sequence (looked up): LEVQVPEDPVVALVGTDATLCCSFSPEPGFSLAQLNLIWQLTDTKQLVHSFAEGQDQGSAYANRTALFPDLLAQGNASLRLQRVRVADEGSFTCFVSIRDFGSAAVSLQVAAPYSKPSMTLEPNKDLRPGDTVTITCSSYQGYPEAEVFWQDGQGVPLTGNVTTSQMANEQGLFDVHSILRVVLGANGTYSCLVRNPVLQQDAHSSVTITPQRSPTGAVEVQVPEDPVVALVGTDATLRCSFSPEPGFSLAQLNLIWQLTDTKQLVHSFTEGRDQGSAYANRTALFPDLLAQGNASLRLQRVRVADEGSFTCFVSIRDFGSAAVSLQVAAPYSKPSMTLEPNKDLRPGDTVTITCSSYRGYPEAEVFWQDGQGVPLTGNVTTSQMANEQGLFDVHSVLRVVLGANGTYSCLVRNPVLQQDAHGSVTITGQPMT
The assay is described as above. Set-up: concentration or dose not given beside the values. As for the experimental part: as §1, §2

Assay [8] addresses T6, rhesus monkey PD-L1 (full-length, on CHO-s cells) (rhesus monkey, UniProt F6VEW6 19-290).
T6 construct: whole, on cells; also called monkey PD-L1-CHO
Nature of the assay: FACS, monkey PD-L1-CHO cells. From the text:
In order to evaluate the cross-reactivity of the VHH-Fc candidate antibodies to monkey PD-L1 and mouse PD-L1, an FACS method is used to detect the binding activity thereof to the mouse and rhesus monkey PD-L1 protein on cells.

Assay [9] has as its target T7, mouse PD-L1 (full-length, on CHO-s cells) (mouse, UniProt Q9EP73 19-290).
T7 construct: whole, on cells; also called mouse PD-L1-CHO
Nature of the assay: FACS, mouse PD-L1-CHO cells. Background: Flow cytometry measures light scatter and fluorescence of single cells or particles in a stream.

The target in assay [10] is T1, human PD-L1 (full-length, on cells). Nature of the assay: FACS competition, human PD-L1-CHO cells, competitor biotin-labeled CD80 1 µg/mL.

T1 sequence (Q9NZQ7 19-290): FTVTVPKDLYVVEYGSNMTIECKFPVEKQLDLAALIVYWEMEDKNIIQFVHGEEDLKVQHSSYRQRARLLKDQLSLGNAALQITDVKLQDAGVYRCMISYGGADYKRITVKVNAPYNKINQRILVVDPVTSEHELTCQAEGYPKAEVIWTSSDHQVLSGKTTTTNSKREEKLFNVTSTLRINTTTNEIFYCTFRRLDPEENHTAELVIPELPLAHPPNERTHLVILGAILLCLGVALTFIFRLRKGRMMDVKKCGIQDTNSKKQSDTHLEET
T7 sequence (Q9EP73 19-290): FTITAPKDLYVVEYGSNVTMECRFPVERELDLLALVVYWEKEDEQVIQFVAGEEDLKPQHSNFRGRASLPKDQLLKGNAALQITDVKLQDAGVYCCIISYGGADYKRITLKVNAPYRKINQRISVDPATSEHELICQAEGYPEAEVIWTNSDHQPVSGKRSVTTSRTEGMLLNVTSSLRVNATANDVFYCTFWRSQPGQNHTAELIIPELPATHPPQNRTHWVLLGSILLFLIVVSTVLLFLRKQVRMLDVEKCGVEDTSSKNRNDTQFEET

B1: NB22D-21 chimeric VHH-Fc antibody (Fc fusion)
chain: EVQVQESGGGLVQAGGSLRLSCAHSRTDSNINGMHWYRQAPGKQRDWVGTIFIDGNTIVTDSVKGRFTISRDNAKNTLYLQMNTLKPEDTAVYFCAADVSGYGRAWGQGTQVTVSS
notes: also called parental antibody NB22D-21; parent molecule; not shown: human IgG1 Fc fragment, its N-terminus linked to the C-terminus of the VHH
Take B1: the IC50 was 0.41 µg/mL in [1] and 0.708 µg/mL in assay [10]. In addition, the half-maximal effective concentration (EC50 (read off the curve)) in assay [2] was around 0.1 µg/mL. Moreover, the results for the concentration giving a half-maximal response (EC50) in assay [3] and in assay [8] were 0.39 µg/mL and 0.25 µg/mL, respectively. For the same molecule, the binding result in [4] is recorded as “no binding (tested: 10.00 (no unit on the sheet))”; in [5] it was “no binding (tested: 10.00 (no unit on the sheet))”; in [6] it was “no binding (tested: 10.00 (no unit on the sheet))”; in [7] it was “no binding (tested: 10.00 (no unit on the sheet))”; in [9], “binds”.

For orientation: IC50 means the concentration at which inhibition is half-maximal. The EC50 (read off the curve) is the concentration at which the effect is half-maximal. One may read the EC50 as the concentration that produces a half-maximal response.
